Source: IntAct's records for PubMed 21107322

B1: G2/mitotic-specific cyclin cdc13 (Schizosaccharomyces pombe (strain ATCC 38366 / 972)), P10815 (parent)
chain: MTTRRLTRQHLLANTLGNNDENHPSNHIARAKSSLHSSENSLVNGKKATVSSTNVPKKRHALDDVSNFHNKEGVPLASKNTNVRHTTASVSTRRALEEKSIIPATDDEPASKKRRQPSVFNSSVPSLPQHLSTKSHSVSTHGVDAFHKDQATIPKKLKKDVDERVVSKDIPKLHRDSVESPESQDWDDLDAEDWADPLMVSEYVVDIFEYLNELEIETMPSPTYMDRQKELAWKMRGILTDWLIEVHSRFRLLPETLFLAVNIIDRFLSLRVCSLNKLQLVGIAALFIASKYEEVMCPSVQNFVYMADGGYDEEEILQAERYILRVLEFNLAYPNPMNFLRRISKADFYDIQTRTVAKYLVEIGLLDHKLLPYPPSQQCAAAMYLAREMLGRGPWNRNLVHYSGYEEYQLISVVKKMINYLQKPVQHEAFFKKYASKKFMKASLFVRDWIKKNSIPLGDDADEDYTFHKQKRIQHDMKDEEW
partner: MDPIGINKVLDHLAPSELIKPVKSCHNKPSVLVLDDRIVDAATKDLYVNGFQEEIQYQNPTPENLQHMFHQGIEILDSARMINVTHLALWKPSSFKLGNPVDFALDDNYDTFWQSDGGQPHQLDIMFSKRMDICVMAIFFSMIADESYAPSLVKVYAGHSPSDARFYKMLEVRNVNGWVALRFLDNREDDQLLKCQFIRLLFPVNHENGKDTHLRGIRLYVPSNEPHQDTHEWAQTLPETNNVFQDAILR

Variants of: B1
Conditions: with apc10_yeast DOC1, P53068

Variant | effect of a mutation on the interaction
R59A;L62A;V65A;N67A | decreasing interaction
